{"source": "patent US20140113288", "proteins": {"B1": {"name": "HtrA4-FLAG (protein)", "chain": "EKLHTQPSCPAVCQPTRCPALPTCALGTTPVFDLCRCCRVCPAAEREVCGGAQGQPCAPGLQCLQPLRPGFPSTCGCPTLGGAVCGSDRRTYPSMCALRAENRAARRLGKVPAVPVQWGNCGDTGTRSAGPLRRNYNFIAAVVEKVAPSVVHVQLWGRLLHGSRLVPVYSGSGFIVSEDGLIITNAHVVRNQQWIEVVLQNGARYEAVVKDIDLKLDLAVIKIESNAELPVLMLGRSSDLRAGEFVVALGSPFSLQNTATAGIVSTKQRGGKELGMKDSDMDYVQIDATINYGNSGGPLVNLDGDVIGVNSLRVTDGISFAIPSDRVRQFLAEYHEHQMKGKAFSNKKYLGLQMLSLTVPLSEELKMHYPDFPDVSSGVYVCKVVEGTAAQSSGLRDHDVIVNINGKPITTTTDVVKALDSDSLSMAVLRGKDNLLLTVIPETIN"}, "B2": {"name": "HtrA4mt-FLAG (protein)", "chain": "B1 chain with S295A"}}, "note": "Where a chain is given by its changes, count along the chain named.", "data": [{"protein": "B1", "values": [{"measurement": "protein level of surface syncytin-1-HA TM subunit (biotinylation, streptavidin pull-down, HA mAb)", "setting": "syncytin-1-HA, Q9UQF0", "result": "the protein level of the TM subunit of syncytin-1-HA decreased in the presence of HtrA4-FLAG, but not HtrA4mt-FLAG"}, {"measurement": "cleavage of fibronectin (immunoblotting with anti-fibronectin Ab)", "setting": "fibronectin", "result": "cleavage of fibronectin by HtrA4-FLAG, but not HtrA4mt-FLAG, was observed in a dose-dependent manner"}]}, {"protein": "B2", "values": [{"measurement": "protein level of surface syncytin-1-HA TM subunit (biotinylation, streptavidin pull-down, HA mAb)", "setting": "syncytin-1-HA, Q9UQF0", "result": "the protein level of the TM subunit of syncytin-1-HA decreased in the presence of HtrA4-FLAG, but not HtrA4mt-FLAG"}, {"measurement": "cleavage of fibronectin (immunoblotting with anti-fibronectin Ab)", "setting": "fibronectin", "result": "cleavage of fibronectin by HtrA4-FLAG, but not HtrA4mt-FLAG, was observed in a dose-dependent manner"}]}]}
